Results as given in article PMC7415141, “Identification and characterization of cytosolic malate dehydrogenase from the liver fluke Fasciola gigantica” (Scientific Reports, 2020).

B1: FgMDH (cytosolic malate dehydrogenase of Fasciola gigantica) (Fasciola gigantica) (protein)
chain: MAPVKVLITGAAGQIGYNLAGMVARGDMLGPNQELILHLFDITPMLNSLHGLQMELDDCAFPLVREVVITDKAEVAFDDIDIALMVGAMPRKEGMERKDLLQANANIFKEQGKVLNEKAKKTVKVIVVGNPANTNALIMMKNAPSIPKENFSAMTRLDHNRATAQIAKRLKIPCTAVKNCVIWGNHSATQFPDVSHAVASIGGKDVKVWDAIKDEEWLKNEFVTTVQKRGAAVIAARKLSSAMSAAKAVVDHIHDWWYGTKPGEWVSMSVWSDGSYGAPVDVFFSFPVEIKDKKWTIVKDLSMDDWGKSMFKTTAEELSEEKVAALGK
notes: ~36 kDa, dimer ~72 kDa

Legend:
[1] = target: cytosolic malate dehydrogenase from Fasciola gigantica (Fasciola gigantica); assay: SEC; gel filtration on Superdex 200 (AKTA FPLC), buffer B (50 mM phosphate pH 7.6, 150 mM NaCl, 10% glycerol), room temperature, 0.3 mL/min; column calibrated with mass standards; single peak at about 15.3 mL, ~72 kDa against ~36 kDa for the monomer
purified protein [2] = substrate: NC(=O)c1ccc[n+]([C@@H]2O[C@H](COP(=O)(O)OP(=O)(O)OC[C@H]3O[C@@H](n4cnc5c(N)ncnc54)[C@H](O)[C@@H]3O)[C@@H](O)[C@H]2O)c1; assay: purified protein; assay type: biochemical, Fasciola gigantica; details: co-substrate malate (assay text: 3 mM, misprinted as MDH), 50 mM glycine buffer, pH 9.6, 25 °C, 50 nM enzyme, varied: cofactor
purified protein [3] = substrate: NC(=O)C1=CN([C@@H]2O[C@H](COP(=O)(O)OP(=O)(O)OC[C@H]3O[C@@H](n4cnc5c(N)ncnc54)[C@H](O)[C@@H]3O)[C@@H](O)[C@H]2O)C=CC1; assay: purified protein; assay type: biochemical, Fasciola gigantica; details: co-substrate oxaloacetate (0.2 mM), 50 mM Tris-Cl, pH 8.0, 25 °C, 50 nM enzyme, varied: cofactor
purified protein [4] = substrate: O=C(O)C[C@H](O)C(=O)O; assay: purified protein; assay type: biochemical, Fasciola gigantica; details: co-substrate NAD+ (0.5 mM), 50 mM glycine buffer, pH 9.6, 25 °C, 50 nM enzyme
purified protein [5] = substrate: O=C(O)CC(=O)C(=O)O; assay: purified protein; assay type: biochemical, Fasciola gigantica; details: co-substrate NADH (0.21 mM), 50 mM Tris-Cl, pH 8.0, 25 °C, 50 nM enzyme

stoichiometry N [1]	Molecule	Km (purified protein [2]) [µM]	Vmax (purified protein [2]) [µmol/min]	Km (purified protein [3]) [µM]	Vmax (purified protein [3]) [µmol/min]	Km (purified protein [4]) [µM]	Vmax (purified protein [4]) [µmol/min]	Km (purified protein [5]) [µM]	Vmax (purified protein [5]) [µmol/min]
2	cytosolic malate dehydrogenase from Fasciola gigantica (enzyme)								
	B1	309 ± 15	18.7	141 ± 54	3.42	447 ± 47	5.45	276 ± 92	4.1
